{
  "source": "paper PMC4220118",
  "about": "“Exploring nicotinamide cofactor promiscuity in NAD(P)H-dependent flavin containing monooxygenases (FMOs) using natural variation within the phosphate binding loop. Structure and activity of FMOs from Cellvibrio sp. BR and Pseudomonas stutzeri NF13” (Journal of Molecular Catalysis. B, Enzymatic, 2014)",
  "molecules": {"B1": {"name": "CFMO (Cellvibrio sp. BR) (protein)", "chain": "MDTPVMDSTDTDSTDIVIIGGGQAALSVAYYLRRSKYSFVMLDAEQTPGGAWLHGWDSLRLFSPSTWSSLSGWQMPPTGETYPSRDQVVDYLRHYESRYEFPVQRPVWVSAVNNLGDRLEVVSERQQWRARVVISATGTWRNPFIPAYPGADLFQGAQLHSAHYQSPAPFAGQKVLVVGGGNSGAQILAEVSRVADCTWVTTSEPIFLPDDVDGRVLFQRATDRWKAAQEGREIEQPVGGLGDVVMVPPVKEARERGALHAVRPFTRFTANGVVWADGTGSAVDAVIWCTGFRPALAHLQSLGVINPDGKVDLAGTRSLQEPRLWLLGYGEWTGLASATLIGVGRSARATAEEIIQYLDSA", "notes": "361 aa; codon-optimised gene in pET-YSBL-LIC-3C, N-terminal 3C-cleavable His6 tag (crystals: non-cleaved protein), E. coli BL21(DE3); dimer"}, "B2": {"name": "Flavin-containing monooxygenase from Pseudomonas stutzeri NF13 (PSFMO), as used in size-exclusion studies (enzyme, UniProt M2V3J0 1-358, looked up)", "chain": "MPPILDVIVIGGGQAALTTAYFLRRTSLSYLLLDEQPGPGGAWLHAWDSLRLFSPAAWSSIAGWPMPSPTEPGNPTRNDVIDYLRRYEDRYQFPIQRPVRVDTVTRLDDLWRVQAGDQQWLARAVISATGTWSKPFIPPYEGRELFQGAQIHSAHYRTPAPFAGKRVMVVGGGNSGAQVLAELSSVSETLWITQEPPAFLPDEVDGRVLFERATARWKAQQEGRSIDEPAGGFGDIVMVPPVREARERGVLVAERPFARFTETGVEWADGRRENLDAVIWCSGFRPALDHLRELGVVEADGKVQVEDTRVVKQPNLWLVGYGDWTGMASATLIGVTRTARSTADQVVQALTATPSRRP", "notes": "PSFMO, putative FMO from Pseudomonas stutzeri NF13, Uniprot M2V3J0, 358 amino acids; synthetic gene amplified with primers from the ATG start codon to the stop codon; Same construct as m2"}},
  "key": {"[1]": {"target": "T1, CFMO (Cellvibrio sp. BR, UniProt I3IEE4)", "T1 construct": "gene O59_000450; 361 aa; codon-optimised gene in pET-YSBL-LIC-3C, N-terminal 3C-cleavable His6 tag (crystals: non-cleaved protein), E. coli BL21(DE3); dimer", "T1 sequence (I3IEE4 1-361)": "B1 chain", "experiment": "X-ray crystal structure, […] Å", "assay_type": "binding", "details": "oxidised FAD at domain interface; co-purified; non-cleaved His-tagged protein"}, "[2]": {"target": "T2, PSFMO (Stutzerimonas stutzeri, UniProt M2V3J0)", "T2 construct": "gene B381_09411; 358 aa; codon-optimised gene in pET-YSBL-LIC-3C, N-terminal 3C-cleavable His6 tag (crystals: tag cleaved, linker Gly-2 Pro-1 Ala0 seen), E. coli BL21(DE3)", "T2 sequence (M2V3J0 1-358)": "B2 chain", "experiment": "X-ray crystal structure, […] Å", "assay_type": "binding", "details": "oxidised FAD; co-purified; tag-cleaved protein"}, "[3]": {"substrate": "NC(=O)C1=CN([C@@H]2O[C@H](COP(=O)(O)OP(=O)(O)OC[C@H]3O[C@@H](n4cnc5c(N)ncnc54)[C@H](O)[C@@H]3O)[C@@H](O)[C@H]2O)C=CC1", "experiment": "purified protein", "assay_type": "biochemical, Cellvibrio sp. BR", "details": "Tris-HCl pH 7.5, 3.9 nmol enzyme in 1 mL, NADH 10-100 μM"}, "[4]": {"substrate": "NC(=O)C1=CN([C@@H]2O[C@H](COP(=O)(O)OP(=O)(O)OC[C@H]3O[C@@H](n4cnc5c(N)ncnc54)[C@H](OP(=O)(O)O)[C@@H]3O)[C@@H](O)[C@H]2O)C=CC1", "experiment": "purified protein", "assay_type": "biochemical, Cellvibrio sp. BR", "details": "Tris-HCl pH 7.5, 3.9 nmol enzyme in 1 mL, NADPH 10-100 μM"}, "[5]": {"substrate": "NC(=O)C1=CN([C@@H]2O[C@H](COP(=O)(O)OP(=O)(O)OC[C@H]3O[C@@H](n4cnc5c(N)ncnc54)[C@H](O)[C@@H]3O)[C@@H](O)[C@H]2O)C=CC1", "experiment": "purified protein", "assay_type": "biochemical, Stutzerimonas stutzeri", "details": "Tris-HCl pH 7.5, 3.9 nmol enzyme in 1 mL, NADH 10-100 μM"}, "[6]": {"substrate": "NC(=O)C1=CN([C@@H]2O[C@H](COP(=O)(O)OP(=O)(O)OC[C@H]3O[C@@H](n4cnc5c(N)ncnc54)[C@H](OP(=O)(O)O)[C@@H]3O)[C@@H](O)[C@H]2O)C=CC1", "experiment": "purified protein", "assay_type": "biochemical, Stutzerimonas stutzeri", "details": "Tris-HCl pH 7.5, 3.9 nmol enzyme in 1 mL, NADPH 10-100 μM"}, "[7]": {"target": "the molecule itself", "experiment": "SEC; size-exclusion studies of PSFMO (not shown)"}},
  "data": [
    {"molecule": "Cc1cc2nc3c(=O)[nH]c(=O)nc-3n(C[C@H](O)[C@H](O)[C@H](O)COP(=O)(O)OP(=O)(O)OC[C@H]3O[C@@H](n4cnc5c(N)ncnc54)[C@H](O)[C@@H]3O)c2cc1C", "note": "[FAD]", "values": [
      {"measurement": "X-ray crystal structure, 2.39 Å", "setting": "[1]", "value": "This was successfully modelled and refined as FAD in the flat, oxidised form"},
      {"measurement": "X-ray crystal structure, 1.83 Å", "setting": "[2]", "value": "FAD was again clearly visible in the omit map after building and refinement"}
    ]},
    {"molecule": "B1", "values": [
      {"measurement": "Km", "setting": "[3]", "value": "3 ± 1", "unit": "µM"},
      {"measurement": "kcat", "setting": "[3]", "value": 0.02, "unit": "s⁻¹"},
      {"measurement": "kcat/Km", "setting": "[3]", "value": 6670, "unit": "M⁻¹ s⁻¹"},
      {"measurement": "Km", "setting": "[4]", "value": "5 ± 1", "unit": "µM"},
      {"measurement": "kcat", "setting": "[4]", "value": 0.02, "unit": "s⁻¹"},
      {"measurement": "kcat/Km", "setting": "[4]", "value": 4000, "unit": "M⁻¹ s⁻¹"}
    ]},
    {"molecule": "B2", "values": [
      {"measurement": "Km", "setting": "[5]", "value": "16 ± 2", "unit": "µM"},
      {"measurement": "kcat", "setting": "[5]", "value": 0.03, "unit": "s⁻¹"},
      {"measurement": "kcat/Km", "setting": "[5]", "value": 1880, "unit": "M⁻¹ s⁻¹"},
      {"measurement": "Km", "setting": "[6]", "value": "17 ± 2.0", "unit": "µM"},
      {"measurement": "kcat", "setting": "[6]", "value": 0.04, "unit": "s⁻¹"},
      {"measurement": "kcat/Km", "setting": "[6]", "value": 2350, "unit": "M⁻¹ s⁻¹"},
      {"measurement": "stoichiometry N", "setting": "[7]", "value": 2}
    ]}
  ]
}
